The numbers were not newly measured in patent US20090169520A1, “Compounds, Pharmaceutical Compositions and Therapeutic Methods of Preventing and Treating Diseases and Disorders Associated With Amyloid Fibril Formation” (YISSUM RESEARCH DEVELOPMENT COMPANY OF THE HEBREW …, priority 2005, published 2009), which cites them from elsewhere.

For this data set the following is noted: single C-terminal substitution (A539T); Bartels et al., 1992; cited from earlier work.

B1: BChE K variant: BChE variant with a single C-terminal substitution (A539T) (protein, UniProt P06276 29-602, looked up, variant A539T)
Cholinesterase: EDDIIIATKNGKVRGMNLTVFGGTVTAFLGIPYAQPPLGRLRFKKPQSLTKWSDIWNATKYANSCCQNIDQSFPGFHGSEMWNPNTDLSEDCLYLNVWIPAPKPKNATVLIWIYGGGFQTGTSSLHVYDGKFLARVERVIVVSMNYRVGALGFLALPGNPEAPGNMGLFDQQLALQWVQKNIAAFGGNPKSVTLFGESAGAASVSLHLLSPGSHSLFTRAILQSGSFNAPWAVTSLYEARNRTLNLAKLTGCSRENETEIIKCLRNKDPQEILLNEAFVVPYGTPLSVNFGPTVDGDFLTDMPDILLELGQFKKTQILVGVNKDEGTAFLVYGAPGFSKDNNSIITRKEFQEGLKIFFPGVSEFGKESILFHYTDWVDDQRPENYREALGDVVGDYNFICPALEFTKKFSEWGNNAFFYYFEHRSSKLPWPEWMGVMHGYEIEFVFGLPLERRDNYTKAEEILSRSIVKRWANFAKYGNPNETQNNSTSWPVFKSTEQKYLTLNTESTRIMTKLRAQQCRFWTSFFPKVLEMTGNIDETEWEWKAGFHRWNNYMMDWKNQFNDYTSKKESCVGL
As for B1, the “reduction in hydrolytic activity” value is on record as 30%.
